What was measured:
Assay in all cases: SEC-MALS; SEC followed by multiangle light scattering of the SEC-purified Δ123 species
[1] = biological target: Δ123 E2 dimer (G1a strain H77c) (hepatitis C virus genotype 1a, strain H77c) (UniProt P27958)
[2] = biological target: Δ123 E2 high-molecular-weight form 1 (HMW1, G1a strain H77c) (hepatitis C virus genotype 1a, strain H77c) (UniProt P27958)
[3] = biological target: Δ123 E2 high-molecular-weight form 2 (HMW2, G1a strain H77c) (hepatitis C virus genotype 1a, strain H77c) (UniProt P27958)

## Δ123 E2 dimer (G1a strain H77c) (from UniProt P27958 384-661) (domain or fragment)
[1]
  stoichiometry N: 2.1

## Δ123 E2 high-molecular-weight form 1 (HMW1, G1a strain H77c) (from UniProt P27958 384-661) (domain or fragment)
[2]
  stoichiometry N: 51.6

## Δ123 E2 high-molecular-weight form 2 (HMW2, G1a strain H77c) (from UniProt P27958 384-661) (domain or fragment)
[3]
  stoichiometry N: 5.1
